Test results as given in patent US20250076311A1 (Chugai, published 2025).

T1: soluble mouse FcγRII, His-tagged (mouse, UniProt P08101 30-210, limits assumed)
T1 construct: Captured on the chip through an anti-His antibody
T1 sequence (looked up): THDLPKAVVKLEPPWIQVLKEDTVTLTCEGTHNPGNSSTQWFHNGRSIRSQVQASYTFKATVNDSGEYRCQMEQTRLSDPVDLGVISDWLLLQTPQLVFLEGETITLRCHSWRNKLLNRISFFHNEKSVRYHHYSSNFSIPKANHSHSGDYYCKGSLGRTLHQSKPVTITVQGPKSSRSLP

T2: human FcγRIIb constitutively expressed on MDCK cells (human, UniProt P31994 43-310)
T2 sequence (looked up): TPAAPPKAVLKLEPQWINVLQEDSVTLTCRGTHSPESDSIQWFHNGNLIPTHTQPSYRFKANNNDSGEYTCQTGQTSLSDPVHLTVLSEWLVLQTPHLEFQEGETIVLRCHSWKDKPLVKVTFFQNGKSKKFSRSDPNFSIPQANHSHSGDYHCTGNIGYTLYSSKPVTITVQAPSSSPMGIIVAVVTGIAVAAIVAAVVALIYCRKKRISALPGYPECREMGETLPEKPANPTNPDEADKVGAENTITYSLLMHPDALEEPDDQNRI


How the values were obtained:
[1] = biological target: T1, soluble mouse FcγRII, His-tagged; experiment: SPR, mouse FcγRII captured via His-tag, antigen-antibody complex injected, pH 7.4, 25 C
Description: Regarding the produced Fc region variant-containing antibodies, binding assays between soluble mouse FcγRII and antigen-antibody complexes were performed using BIACORE® T200 (GE Healthcare). Soluble mouse FcγRII was produced in the form of a His-tagged molecule by a method known to those skilled in the art. An appropriate amount of an anti-His antibody was fixed onto Sensor chip CM5 (GE Healthcare) by the amine coupling method using a His capture kit (GE Healthcare) to capture mouse FcγRII. Next, an antibody-antigen complex and a running buffer (as a reference solution) were injected, and interaction was allowed to take place with the mouse FcγRII captured onto the sensor chip. 20 mM N-(2-Acetamido)-2-aminoethanesulfonic acid, 150 mM NaCl, 1.2 mM CaCl₂), and 0.05% (w/v) TWEEN® 20 at pH7.4 was used as the running buffer, and the respective buffer was also used to dilute the soluble mouse FcγRII. To regenerate the sensor chip, 10 mM glycine-HCl at pH1.5 was used. All measurements were carried out at 25° C. […] To calculate the parameters, the BIACORE® T100 Evaluation Software (GE Healthcare) was used.

[2] = biological target: T2, human FcγRIIb constitutively expressed …; experiment: cell-based or functional assay

biacore IC binding (relative, SG1 = 1.00) [1] | celluar uptake (labelled human latent myostatin taken up as antigen-antibody complex) [2] | Binder
1.24 relative to SG1 | 2.13 relative to SG1 = 1.00 | M103205H795-P1522m/M103202L889-SK1 (antibody, human IgG1, kappa, name in EU numbering, copies: 2 + 2) heavy: not shown light: DIVMTQSPATLSLSPGERATLSCTSSQSVYHANWLSWFQQKPGQPPKLLIYWASTLAYGVPSRFSGSGSGTDFTLTISSLQPEDAATYYCAGGYGGGRYAFGQGTKVEIKRTVAAPSVFIFPPSDEQLKSGTASVVCLLNNFYPREAKVQWKVDNALQSGNSQESVTEQDSKDSTYSLSSTLTLSKADYEKHKVYACEVTHQGLSSPVTKSFNRGEC
1.32 relative to SG1 | 1.82 relative to SG1 = 1.00 | M103205H795-P1500m/M103202L889-SK1 (antibody, human IgG1, kappa, name in EU numbering) heavy: not shown light: DIVMTQSPATLSLSPGERATLSCTSSQSVYHANWLSWFQQKPGQPPKLLIYWASTLAYGVPSRFSGSGSGTDFTLTISSLQPEDAATYYCAGGYGGGRYAFGQGTKVEIKRTVAAPSVFIFPPSDEQLKSGTASVVCLLNNFYPREAKVQWKVDNALQSGNSQESVTEQDSKDSTYSLSSTLTLSKADYEKHKVYACEVTHQGLSSPVTKSFNRGEC
0.98 relative to SG1 | 0.92 relative to SG1 = 1.00 | M103205H795-P1527m/M103202L889-SK1 (antibody, human IgG1, kappa, name in EU numbering, copies: 2 + 2) heavy: not shown light: DIVMTQSPATLSLSPGERATLSCTSSQSVYHANWLSWFQQKPGQPPKLLIYWASTLAYGVPSRFSGSGSGTDFTLTISSLQPEDAATYYCAGGYGGGRYAFGQGTKVEIKRTVAAPSVFIFPPSDEQLKSGTASVVCLLNNFYPREAKVQWKVDNALQSGNSQESVTEQDSKDSTYSLSSTLTLSKADYEKHKVYACEVTHQGLSSPVTKSFNRGEC
1.4 relative to SG1 | 3.66 relative to SG1 = 1.00 | M103205H795-P1524m/M103202L889-SK1 (antibody, human IgG1, kappa, name in EU numbering) heavy: not shown light: DIVMTQSPATLSLSPGERATLSCTSSQSVYHANWLSWFQQKPGQPPKLLIYWASTLAYGVPSRFSGSGSGTDFTLTISSLQPEDAATYYCAGGYGGGRYAFGQGTKVEIKRTVAAPSVFIFPPSDEQLKSGTASVVCLLNNFYPREAKVQWKVDNALQSGNSQESVTEQDSKDSTYSLSSTLTLSKADYEKHKVYACEVTHQGLSSPVTKSFNRGEC
1.49 relative to SG1 | 1.38 relative to SG1 = 1.00 | M103205H795-P1497m/M103202L889-SK1 (antibody, human IgG1, kappa, name in EU numbering) heavy: not shown light: DIVMTQSPATLSLSPGERATLSCTSSQSVYHANWLSWFQQKPGQPPKLLIYWASTLAYGVPSRFSGSGSGTDFTLTISSLQPEDAATYYCAGGYGGGRYAFGQGTKVEIKRTVAAPSVFIFPPSDEQLKSGTASVVCLLNNFYPREAKVQWKVDNALQSGNSQESVTEQDSKDSTYSLSSTLTLSKADYEKHKVYACEVTHQGLSSPVTKSFNRGEC
1.31 relative to SG1 | 3.55 relative to SG1 = 1.00 | M103205H795-P1525m/M103202L889-SK1 (antibody, human IgG1, kappa, name in EU numbering) heavy: not shown light: DIVMTQSPATLSLSPGERATLSCTSSQSVYHANWLSWFQQKPGQPPKLLIYWASTLAYGVPSRFSGSGSGTDFTLTISSLQPEDAATYYCAGGYGGGRYAFGQGTKVEIKRTVAAPSVFIFPPSDEQLKSGTASVVCLLNNFYPREAKVQWKVDNALQSGNSQESVTEQDSKDSTYSLSSTLTLSKADYEKHKVYACEVTHQGLSSPVTKSFNRGEC
1.38 relative to SG1 | 1.56 relative to SG1 = 1.00 | M103205H795-P1498m/M103202L889-SK1 (antibody, human IgG1, kappa, name in EU numbering) heavy: not shown light: DIVMTQSPATLSLSPGERATLSCTSSQSVYHANWLSWFQQKPGQPPKLLIYWASTLAYGVPSRFSGSGSGTDFTLTISSLQPEDAATYYCAGGYGGGRYAFGQGTKVEIKRTVAAPSVFIFPPSDEQLKSGTASVVCLLNNFYPREAKVQWKVDNALQSGNSQESVTEQDSKDSTYSLSSTLTLSKADYEKHKVYACEVTHQGLSSPVTKSFNRGEC
0.88 relative to SG1 | 1.13 relative to SG1 = 1.00 | M103205H795-P1492m/M103202L889-SK1 (antibody, human IgG1, kappa, name in EU numbering, copies: 2 + 2) heavy: not shown light: DIVMTQSPATLSLSPGERATLSCTSSQSVYHANWLSWFQQKPGQPPKLLIYWASTLAYGVPSRFSGSGSGTDFTLTISSLQPEDAATYYCAGGYGGGRYAFGQGTKVEIKRTVAAPSVFIFPPSDEQLKSGTASVVCLLNNFYPREAKVQWKVDNALQSGNSQESVTEQDSKDSTYSLSSTLTLSKADYEKHKVYACEVTHQGLSSPVTKSFNRGEC
1.14 relative to SG1 | 1.12 relative to SG1 = 1.00 | M103205H795-P1494m/M103202L889-SK1 (antibody, human IgG1, kappa, name in EU numbering, copies: 2 + 2) heavy: not shown light: DIVMTQSPATLSLSPGERATLSCTSSQSVYHANWLSWFQQKPGQPPKLLIYWASTLAYGVPSRFSGSGSGTDFTLTISSLQPEDAATYYCAGGYGGGRYAFGQGTKVEIKRTVAAPSVFIFPPSDEQLKSGTASVVCLLNNFYPREAKVQWKVDNALQSGNSQESVTEQDSKDSTYSLSSTLTLSKADYEKHKVYACEVTHQGLSSPVTKSFNRGEC

The next lines start with the binder.

Binder | biacore IC binding (relative, SG1 = 1.00) [1] | celluar uptake (labelled human latent myostatin taken up as antigen-antibody complex) [2]
M103205H795-P1491m/M103202L889-SK1 (antibody, human IgG1, kappa, name in EU numbering, copies: 2 + 2) heavy: not shown light: DIVMTQSPATLSLSPGERATLSCTSSQSVYHANWLSWFQQKPGQPPKLLIYWASTLAYGVPSRFSGSGSGTDFTLTISSLQPEDAATYYCAGGYGGGRYAFGQGTKVEIKRTVAAPSVFIFPPSDEQLKSGTASVVCLLNNFYPREAKVQWKVDNALQSGNSQESVTEQDSKDSTYSLSSTLTLSKADYEKHKVYACEVTHQGLSSPVTKSFNRGEC | 1.05 relative to SG1 | 1.37 relative to SG1 = 1.00
M103205H795-P1495m/M103202L889-SK1 (antibody, human IgG1, kappa, name in EU numbering, copies: 2 + 2) heavy: not shown light: DIVMTQSPATLSLSPGERATLSCTSSQSVYHANWLSWFQQKPGQPPKLLIYWASTLAYGVPSRFSGSGSGTDFTLTISSLQPEDAATYYCAGGYGGGRYAFGQGTKVEIKRTVAAPSVFIFPPSDEQLKSGTASVVCLLNNFYPREAKVQWKVDNALQSGNSQESVTEQDSKDSTYSLSSTLTLSKADYEKHKVYACEVTHQGLSSPVTKSFNRGEC | 1.3 relative to SG1 | 1.76 relative to SG1 = 1.00
M103205H795-P1526m/M103202L889-SK1 (antibody, human IgG1, kappa, name in EU numbering, copies: 2 + 2) heavy: not shown light: DIVMTQSPATLSLSPGERATLSCTSSQSVYHANWLSWFQQKPGQPPKLLIYWASTLAYGVPSRFSGSGSGTDFTLTISSLQPEDAATYYCAGGYGGGRYAFGQGTKVEIKRTVAAPSVFIFPPSDEQLKSGTASVVCLLNNFYPREAKVQWKVDNALQSGNSQESVTEQDSKDSTYSLSSTLTLSKADYEKHKVYACEVTHQGLSSPVTKSFNRGEC | 1.04 relative to SG1 | 1.2 relative to SG1 = 1.00
M103205H795-P1493m/M103202L889-SK1 (antibody, human IgG1, kappa, name in EU numbering, copies: 2 + 2) heavy: not shown light: DIVMTQSPATLSLSPGERATLSCTSSQSVYHANWLSWFQQKPGQPPKLLIYWASTLAYGVPSRFSGSGSGTDFTLTISSLQPEDAATYYCAGGYGGGRYAFGQGTKVEIKRTVAAPSVFIFPPSDEQLKSGTASVVCLLNNFYPREAKVQWKVDNALQSGNSQESVTEQDSKDSTYSLSSTLTLSKADYEKHKVYACEVTHQGLSSPVTKSFNRGEC | 1.1 relative to SG1 | 0.99 relative to SG1 = 1.00
M103205H795-P1501m/M103202L889-SK1 (antibody, human IgG1, kappa, name in EU numbering, copies: 2 + 2) heavy: not shown light: DIVMTQSPATLSLSPGERATLSCTSSQSVYHANWLSWFQQKPGQPPKLLIYWASTLAYGVPSRFSGSGSGTDFTLTISSLQPEDAATYYCAGGYGGGRYAFGQGTKVEIKRTVAAPSVFIFPPSDEQLKSGTASVVCLLNNFYPREAKVQWKVDNALQSGNSQESVTEQDSKDSTYSLSSTLTLSKADYEKHKVYACEVTHQGLSSPVTKSFNRGEC | 1.82 relative to SG1 | 2.4 relative to SG1 = 1.00
M103205H795-P1496m/M103202L889-SK1 (antibody, human IgG1, kappa, name in EU numbering, copies: 2 + 2) heavy: not shown light: DIVMTQSPATLSLSPGERATLSCTSSQSVYHANWLSWFQQKPGQPPKLLIYWASTLAYGVPSRFSGSGSGTDFTLTISSLQPEDAATYYCAGGYGGGRYAFGQGTKVEIKRTVAAPSVFIFPPSDEQLKSGTASVVCLLNNFYPREAKVQWKVDNALQSGNSQESVTEQDSKDSTYSLSSTLTLSKADYEKHKVYACEVTHQGLSSPVTKSFNRGEC | 1.28 relative to SG1 | 1.69 relative to SG1 = 1.00
M103205H795-P1523m/M103202L889-SK1 (antibody, human IgG1, kappa, name in EU numbering, copies: 2 + 2) heavy: not shown light: DIVMTQSPATLSLSPGERATLSCTSSQSVYHANWLSWFQQKPGQPPKLLIYWASTLAYGVPSRFSGSGSGTDFTLTISSLQPEDAATYYCAGGYGGGRYAFGQGTKVEIKRTVAAPSVFIFPPSDEQLKSGTASVVCLLNNFYPREAKVQWKVDNALQSGNSQESVTEQDSKDSTYSLSSTLTLSKADYEKHKVYACEVTHQGLSSPVTKSFNRGEC | 1.19 relative to SG1 | 1.91 relative to SG1 = 1.00
